Test results as given in patent US20110300156A1 (Genmab, published 2011).
Blank lines part the entries; values can stand above or below the binder they belong to.

Experiments:
[1] = target: T1, human tissue factor (TF), membrane-bound on cells (human, UniProt P13726 33-295); test: FACS, TF transfected CHO cells (S1015-TF)
T1 construct: whole, on cells; also called cellular TF
Method in brief: (§1)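 Binding curves came from non-linear sigmoidal variable-slope fits of flow cytometry signal. Serially diluted HuMab was applied for 30 minutes on ice in PBS buffer containing 0.1% BSA and 0.02% Na-azide, with PE anti-human IgGFc secondary added after washing, again 30 minutes on ice, dark.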

[2] = target: T1, human tissue factor (TF), …; test: cell-based or functional assay
[3] = target: T1, human tissue factor (TF), …; test: FACS, MDA-MB-231 cells
Method in brief: as §1

[4] = target: T1, human tissue factor (TF), …; test: cell-based or functional assay; remark: listed apart in the source
[5] = target: T2, TFECDHis (extracellular domain of tissue factor, amino acid 1-251, with C-terminal His tag) (human, UniProt P13726 33-251); test: ELISA, coated TFECDHis, mean of 3
T2 construct: range 1-251; The stated range 1-251 starts at residue 1 of NP-001984; also called extracellular domain of TF
Method in brief: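 Plates coated overnight at +4° C with 0.5 μg/mL TFECDHis in PBS pH 7.4, blocked with 2% chicken serum. Serially diluted HuMabs bound 1 h at RT with shaking, detected with HRP anti-human IgG. Binding curves fitted by sigmoidal dose-response with variable slope; anti-KLH HuMab served as negative control.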

[6] = target: T1, human tissue factor (TF), …; test: FACS, A431 cells
Method in brief: as §1

[7] = target: T2, TFECDHis (extracellular domain of …); test: competition ELISA, inhibition of FVIIa (100 nM) binding to coated TFECDHis
Procedure: ELISA plates were coated overnight with TFECDHis (0.5 μg/mL, 100 μL per well). Plates were emptied, blocked with PBS containing 2% (v/v) chicken serum (1 hour, RT), and emptied again. […] Plates were washed and incubated with swine-anti-rabbit IgG-HRP antibody (1:2,500; DAKO). After washing, the immune complexes were visualized using ABTS as a substrate.

[8] = target: T1, human tissue factor (TF), …; test: FACS, Bx-PC3 cells
Method in brief: as §1

[9] = target: T1, human tissue factor (TF), …; test: FACS on MDA-MB-231 cells (~900.000 TF molecules/cell) [panel MDA-MB-231 cells]
Procedure: Cells were resuspended in PBS (2×10⁶ cells/ml), put in 96-well V-bottom plates (50 μl/well). 50 μl of serially diluted HuMab in FACS buffer (PBS supplemented with 0.1% BSA and 0.02% Na-azide) was added to the cells and incubated for 30 minutes on ice. After washing three times with FACS buffer, 50 μl of phycoerythrin (PE)-conjugated goat anti-human IgGFc (Jackson ImmunoResearch), diluted 1:100 in FACS buffer, was added. After 30 minutes on ice (in the dark), cells were washed three times, and specific binding of the HuMabs was detected by flow cytometry on a FACSCalibur (BD Biosciences). HuMab-KLH was used as a negative control. Mouse anti-TF followed by PE-conjugated anti-mouse IgGFc was used as positive control. Binding curves were analyzed using non-linear regression (sigmoidal dose-response with variable slope) using GraphPad Prism V4.03 software (GraphPad Software, San Diego, Calif., USA).
Binding of anti-TF HuMabs to membrane-bound TF on cell lines expressing different levels of TF was determined by FACS analysis, essentially as described supra. Mouse anti-TF antibody followed by PE-conjugated anti-mouse IgGFc was used as a positive control. Fluorescence was measured on a FACSCantoII. Binding curves were analyzed essentially as described supra, using GraphPad Prism 5 software. The amount of TF molecules on cell lines was determined by Qifi kit (Dako, Glostrup, Denmark), according to the manufacturer's instructions.

[10] = target: T1, human tissue factor (TF), …; test: FACS, TF transfected CHO cells (S1015-TF), 7.5 µg/mL
Method in brief: as §1

[11] = target: T3, TF (Innovin) (UniProt P13726 33-295, limits assumed); test: cell-based or functional assay
[12] = target: T1, human tissue factor (TF), …; test: FACS, Bx-PC3 cells, 30 µg/mL
Method in brief: as §1

[13] = target: T1, human tissue factor (TF), …; test: FACS, A431 cells, 30 µg/mL
Method in brief: as §1

[14] = target: T1, human tissue factor (TF), …; test: cell-based or functional assay; remark: listed apart in the source
[15] = target: T1, human tissue factor (TF), …; test: FACS, MDA-MB-231 cells, 30 µg/mL
Method in brief: as §1

[16] = target: T3, TF (Innovin); test: cell-based or functional assay; remark: listed apart in the source

EC50 [1]: 0.92 nM
EC50 of ADCC, Bx-PC3 cells [2]: 0.06 nM
EC50 of ADCC, MDA-MB-231 cells [2]: 0.12 nM
EC50 [3]: 2.16 nM
% max inhibition of FVIIa induced ERK phosphorylation (A431) [4]: 72%
IC50, inhibition of FVIIa induced ERK phosphorylation (A431) [4]: 2.42 nM
EC50 [5]: 0.27 nM
EC50 [6]: 1.74 nM
max inhibition [7]: 90%
EC50 [8]: 4.04 nM
EC50 (read off the curve) [9]: ~0.07 µg/mL
Max MFI [10]: 5630
% max inhibition of FXa generation [11]: 18%
IC50, inhibition of FXa generation [11]: 0.09 nM
Max MFI [12]: 1320
Max MFI [13]: 3120
IC50, inhibition of FVIIa induced IL-8 release (MDA-MB-231) [14]: 13.6 nM
max inhibition of FVIIa induced IL-8 release (MDA-MB-231) [14]: 70.4%
Max MFI [15]: 2050
IC50, inhibition of blood coagulation (TF induced clotting time) [16]: 7.6 nM
B1: anti-TF HuMab 109 (antibody, V domains shown)
VH: QVQLVESGGGVVQPGRSLRLSCPASGFTFSIYAMHWVRQAPGKGLEWVAVVSNDGYNKYYADSVKGRFTISRDNSKDTLYLQMNSLRAEDTAVYYCARDGQLGRGYFDYWGQGTLVTVSS
VL: EIVLTQSPATLSLSPGERAILSCRASQSVSSYLAWYQQKPGQAPRLLIYDASNRATGIPARFSGSGSGTDFTLTISSLEPEDFAVYYCQQRSNWPLTFGGGTKVEIK
notes: Human monoclonal antibody from HuMab mice

EC50 [1]: 1.07 nM
EC50 of ADCC, Bx-PC3 cells [2]: 0.07 nM
EC50 of ADCC, MDA-MB-231 cells [2]: 0.06 nM
EC50 [3]: 1.58 nM
% max inhibition of FVIIa induced ERK phosphorylation (A431) [4]: 26%
IC50, inhibition of FVIIa induced ERK phosphorylation (A431) [4]: 9.11 nM
EC50 [5]: 0.24 nM
EC50 [6]: 8.04 nM
IC50 [7]: 19.3 nM
max inhibition [7]: 27%
EC50 [8]: 1.86 nM
EC50 (read off the curve) [9]: ~0.1 µg/mL
Max MFI [10]: 5210
% max inhibition of FXa generation [11]: 31%
IC50, inhibition of FXa generation [11]: 0.05 nM
Max MFI [12]: 1300
Max MFI [13]: 3620
max inhibition of FVIIa induced IL-8 release (MDA-MB-231) [14]: -0.3%
Max MFI [15]: 2450
IC50, inhibition of blood coagulation (TF induced clotting time) [16]: 0.6 nM
B2: anti-TF HuMab 013 (antibody, V domains shown)
VH: EVQLVQSGAEVKKPGESLKISCKGSGYSFTSYWIGWVRQMPGKGLEWMGIIYPGDSDTRYSPSFQGQVTISADKSISTAYLQWSSLKASDTAMYYCARIHRGAGYSSSWPGAFDIWGQGTMVTVSS
VL: DIQMTQSPSSLSASVGDRVTITCRASQGISRWLAWYQQKPEKAPKSLIYAASSLQSGVPSRFSGSGSGTDFTLTISSLQPEDFATYYCQQYDSDPITFGQGTRLEIK
notes: Human monoclonal antibody from HuMab mice; also called HuMab-TF-13
